Data on 1 substance can be found in paper PMC4357698.

A value given as a limit tells only on which side of the number the result lay.

Assay [1] deals with 43S preinitiation complex reconstituted from purified components (UniProt P62841). Kind of assay: co-sedimentation.
For the next assay, the target named is 40S ribosomal subunit (UniProt P62841). The assay is described as follows: co-sedimentation.

In assay [1], “human SRP9/14 protein dimer (from UniProt P49458 1-86; P37108 1-136) (complex)” displayed a fold reduction of bound SRP9/14 against the scAluY^A RNP sample of 3 fold and a percent of SRP9/14 comigrating with the complex of 15%. Moreover, in the assay with 40S ribosomal subunit, the share of h9/14 comigrating with the subunit (fraction of h9/14) stood at 0.33 and the stoichiometry N (binding sites on 40S) was greater than 1.
